From patent US20240165140A1, “MEDICATION FOR INHIBITING DNA-PKCS” (TSINGHUA UNIVERSITY, priority 2017, published 2024)

How the values were obtained:
[1] = system: DNA-PKcs, PARP, γH2AX and Caspase-3 signaling pathways; experiment: Immunoblotting of DNA damage and apoptotic pathway, tumor cells with normal P53 function; conditions: H1299-P53, A549-NC; Endostatin 10 μg/ml, Etoposide 10 μM 16 h, z-DEVD-fmk 10 μM; Endostatin and z-DEVD-fmk added 1 h before Etoposide
Text: In this example, tumor cells (H1299-NC, H1299-P53, A549-NC, A549-shP53) were divided into six treatment groups.

[2] = system: P53-deficient tumor cells (H1299-NC, A549-shP53); experiment: PI staining apoptosis by flow cytometry, P53-deficient tumor cells; assay type: cell-based; conditions: Endostatin 10 μg/ml added 1 h before Etoposide 1 μM, 16 h
Procedure: The apoptotic cells and adherent cells floating in the culture medium were collected, and the cells were suspended in 500 μl PBS containing 0.05 mg/ml propidium iodide (PI), stained for 15 min at room temperature in dark, and detected by flow cytometry (BD FACS Calibur). PI-positive cells represent apoptotic cells.

H1299-NC tumor = experiment: Subcutaneous tumor growth in nude mice, H1299-NC; assay type: in vivo; conditions: Day 19, compared with control group, Endostatin 20 mg/kg i.p. once a day, Etoposide 2 mg/kg i.p. once every two days
Procedure: (§1) Tumor-bearing nude mice were randomly divided into four groups with 6 to 8 animals for each group, and different drug treatments were performed. […] Tumor volume was measured every other day. 2 to 4 weeks after administration, the mice were sacrificed and the tumor tissue was removed for further use.

DNA-PKcs = molecular target: T1, DNA-PKcs (Homo sapiens, UniProt P78527); experiment: Endostatin-coupled CNBr-activated Sepharose 4B pull-down and co-immunoprecipitation; assay type: binding
T1 construct: incubated with A549 cell lysate; endogenous in cells; host or cells: A549 and H1299 cells (lysates)
Procedure: CNBr-activated Sepharose 4B used in this example was purchased from Sigma. First, according to the instructions, endostatin and bovine serum albumin (BSA) were coupled to CNBr-activated Sepharose 4B, respectively, and incubated with A549 cell lysate. The pull down proteins were subjected to SDS-PAGE electrophoresis and stained with Coomassie blue. […] To further verify the interaction between the two, H1299 and A549 cells were incubated with Endostatin for 2 hours for endocytosis. The cell lysate was mixed with the antibody of DNA-PKcs, and then co-incubated with protein A/G beads.

[3] = system: mRNA levels of BAX, NOXA, PUMA, and P21; experiment: Real-time PCR of pro-apoptotic molecules, P53-deficient tumor cells; assay type: cell-based; conditions: H1299-NC, A549-shP53; Endostatin 10 μg/ml added 1 h before Etoposide 1 μM, 16 h
Procedure: (§2) After the cells were treated as described above, the total RNA of the cells was extracted, and the relative changes in mRNA levels of BAX, NOXA, PUMA, and P21 in the cells were detected by real-time PCR.

[4] = system: DNA-PKcs signaling pathway; experiment: Immunoblotting of DNA-PKcs signaling pathway activation induced by chemotherapeutic agent; assay type: cell-based; conditions: H1299 and A549 cells; single agent 1 h (Etoposide 10 μM, Endostatin 10 μg/ml, NU7026 10 μM); compared with control group
Text: Tumor cells (including non-small cell lung cancer H1299 and A549 cells) were divided into six treatment groups.
Tumor cells (including H1299 and A549 cells) were divided into six treatment groups.

[5] = system: PCNA and DNA-PKcs protein in H1299-NC and A549-shP53 tumor tissues; experiment: Immunofluorescence of PCNA and DNA-PKcs in tumor tissue, P53-deficient mouse tumor model; assay type: in vivo, nude mice; conditions: H1299-NC and A549-shP53 tumors of Example 12; quantitative immunofluorescence
Procedure: as §1
The tumor tissue removed in Example 12 was fixed and embedded, and then sectioned. PCNA (a marker molecule indicating the vigorous proliferation status of tumor cells) and DNA-PKcs protein in tumor tissues were stained by immunofluorescence technique, and were observed and imaged with a laser confocal microscope (Nikon A1). The experimental results are shown in FIG. 14A-14D, in which blue represents the nucleus of DAPI-stained cells, green represents the DNA-PKcs protein, and red represents the PCNA protein. Taking the H1299-NC tumor tissue shown in FIG. 14A as an example, the first column on the left represents DNA-PKcs single staining, and the green area represents the DNA-PKcs protein expression level. The second column on the left represents the results of DNA-PKcs (green) merged with nucleus (blue), and the overlapping part is shown in cyan. The third column on the left represents PCNA single staining, and the red area represents the PCNA protein expression level, indicating the strength of tumor cell proliferation. […]

γH2AX = experiment: Immunoblotting of γH2AX level (DSBs damage repair); assay type: cell-based; conditions: H1299 and A549 cells; Endostatin 10 μg/ml pretreatment 1 h, Etoposide 10 μM 1 hour, then fresh medium
Text: In this example, the level of γH2AX was used to reflect the degree of DSBs damage. Tumor cells (including H1299 and A549 cells) were divided into eight treatment groups.

H1299-P53 tumor = experiment: Subcutaneous tumor growth in nude mice, H1299-P53; assay type: in vivo
Procedure: as §1

[6] = system: mRNA levels of BAX, NOXA, PUMA, and P21; experiment: Real-time PCR of pro-apoptotic molecules, tumor cells with normal P53 function; assay type: cell-based; conditions: H1299-P53, A549-NC; Endostatin 10 μg/ml added 1 h before Etoposide 1 μM, 16 h
Procedure: as §2

H1299 and A549 cells = experiment: Annexin V-FITC/PI apoptosis by flow cytometry with DNA-PKcs siRNA knockdown; assay type: cell-based; conditions: Endostatin 10 μg/ml added 1 h before Etoposide (10 μM for H1299, 1 μM for A549, 16 h)
Procedure: In this example, tumor cells (including H1299 and A549 cells) were divided into eight treatment groups. In the first four groups, cells were transfected with control siRNA, and in the last four groups, cells were transfected with siRNA that specifically knocked down DNA-PKcs. The siRNA sequence of DNA-PKcs is: forward 5′-[…]-3′ (SEQ ID NO: 5), reverse 5′-[…]-3′ (SEQ ID NO: 6). The siRNA transfection method was performed according to the instructions of the transfection reagent Lipofectamine 2000. Then, in the eight groups, the cells were treated with drugs. […] Cells were collected and operations were performed according to the instructions of Annexin V-FITC/PI Apoptosis Detection Kit. Apoptosis was detected by flow cytometry. A549 cells were P53 wild-type cells, and H1299 cells were P53-deficient cells.

T1 sequence (P78527 whole entry): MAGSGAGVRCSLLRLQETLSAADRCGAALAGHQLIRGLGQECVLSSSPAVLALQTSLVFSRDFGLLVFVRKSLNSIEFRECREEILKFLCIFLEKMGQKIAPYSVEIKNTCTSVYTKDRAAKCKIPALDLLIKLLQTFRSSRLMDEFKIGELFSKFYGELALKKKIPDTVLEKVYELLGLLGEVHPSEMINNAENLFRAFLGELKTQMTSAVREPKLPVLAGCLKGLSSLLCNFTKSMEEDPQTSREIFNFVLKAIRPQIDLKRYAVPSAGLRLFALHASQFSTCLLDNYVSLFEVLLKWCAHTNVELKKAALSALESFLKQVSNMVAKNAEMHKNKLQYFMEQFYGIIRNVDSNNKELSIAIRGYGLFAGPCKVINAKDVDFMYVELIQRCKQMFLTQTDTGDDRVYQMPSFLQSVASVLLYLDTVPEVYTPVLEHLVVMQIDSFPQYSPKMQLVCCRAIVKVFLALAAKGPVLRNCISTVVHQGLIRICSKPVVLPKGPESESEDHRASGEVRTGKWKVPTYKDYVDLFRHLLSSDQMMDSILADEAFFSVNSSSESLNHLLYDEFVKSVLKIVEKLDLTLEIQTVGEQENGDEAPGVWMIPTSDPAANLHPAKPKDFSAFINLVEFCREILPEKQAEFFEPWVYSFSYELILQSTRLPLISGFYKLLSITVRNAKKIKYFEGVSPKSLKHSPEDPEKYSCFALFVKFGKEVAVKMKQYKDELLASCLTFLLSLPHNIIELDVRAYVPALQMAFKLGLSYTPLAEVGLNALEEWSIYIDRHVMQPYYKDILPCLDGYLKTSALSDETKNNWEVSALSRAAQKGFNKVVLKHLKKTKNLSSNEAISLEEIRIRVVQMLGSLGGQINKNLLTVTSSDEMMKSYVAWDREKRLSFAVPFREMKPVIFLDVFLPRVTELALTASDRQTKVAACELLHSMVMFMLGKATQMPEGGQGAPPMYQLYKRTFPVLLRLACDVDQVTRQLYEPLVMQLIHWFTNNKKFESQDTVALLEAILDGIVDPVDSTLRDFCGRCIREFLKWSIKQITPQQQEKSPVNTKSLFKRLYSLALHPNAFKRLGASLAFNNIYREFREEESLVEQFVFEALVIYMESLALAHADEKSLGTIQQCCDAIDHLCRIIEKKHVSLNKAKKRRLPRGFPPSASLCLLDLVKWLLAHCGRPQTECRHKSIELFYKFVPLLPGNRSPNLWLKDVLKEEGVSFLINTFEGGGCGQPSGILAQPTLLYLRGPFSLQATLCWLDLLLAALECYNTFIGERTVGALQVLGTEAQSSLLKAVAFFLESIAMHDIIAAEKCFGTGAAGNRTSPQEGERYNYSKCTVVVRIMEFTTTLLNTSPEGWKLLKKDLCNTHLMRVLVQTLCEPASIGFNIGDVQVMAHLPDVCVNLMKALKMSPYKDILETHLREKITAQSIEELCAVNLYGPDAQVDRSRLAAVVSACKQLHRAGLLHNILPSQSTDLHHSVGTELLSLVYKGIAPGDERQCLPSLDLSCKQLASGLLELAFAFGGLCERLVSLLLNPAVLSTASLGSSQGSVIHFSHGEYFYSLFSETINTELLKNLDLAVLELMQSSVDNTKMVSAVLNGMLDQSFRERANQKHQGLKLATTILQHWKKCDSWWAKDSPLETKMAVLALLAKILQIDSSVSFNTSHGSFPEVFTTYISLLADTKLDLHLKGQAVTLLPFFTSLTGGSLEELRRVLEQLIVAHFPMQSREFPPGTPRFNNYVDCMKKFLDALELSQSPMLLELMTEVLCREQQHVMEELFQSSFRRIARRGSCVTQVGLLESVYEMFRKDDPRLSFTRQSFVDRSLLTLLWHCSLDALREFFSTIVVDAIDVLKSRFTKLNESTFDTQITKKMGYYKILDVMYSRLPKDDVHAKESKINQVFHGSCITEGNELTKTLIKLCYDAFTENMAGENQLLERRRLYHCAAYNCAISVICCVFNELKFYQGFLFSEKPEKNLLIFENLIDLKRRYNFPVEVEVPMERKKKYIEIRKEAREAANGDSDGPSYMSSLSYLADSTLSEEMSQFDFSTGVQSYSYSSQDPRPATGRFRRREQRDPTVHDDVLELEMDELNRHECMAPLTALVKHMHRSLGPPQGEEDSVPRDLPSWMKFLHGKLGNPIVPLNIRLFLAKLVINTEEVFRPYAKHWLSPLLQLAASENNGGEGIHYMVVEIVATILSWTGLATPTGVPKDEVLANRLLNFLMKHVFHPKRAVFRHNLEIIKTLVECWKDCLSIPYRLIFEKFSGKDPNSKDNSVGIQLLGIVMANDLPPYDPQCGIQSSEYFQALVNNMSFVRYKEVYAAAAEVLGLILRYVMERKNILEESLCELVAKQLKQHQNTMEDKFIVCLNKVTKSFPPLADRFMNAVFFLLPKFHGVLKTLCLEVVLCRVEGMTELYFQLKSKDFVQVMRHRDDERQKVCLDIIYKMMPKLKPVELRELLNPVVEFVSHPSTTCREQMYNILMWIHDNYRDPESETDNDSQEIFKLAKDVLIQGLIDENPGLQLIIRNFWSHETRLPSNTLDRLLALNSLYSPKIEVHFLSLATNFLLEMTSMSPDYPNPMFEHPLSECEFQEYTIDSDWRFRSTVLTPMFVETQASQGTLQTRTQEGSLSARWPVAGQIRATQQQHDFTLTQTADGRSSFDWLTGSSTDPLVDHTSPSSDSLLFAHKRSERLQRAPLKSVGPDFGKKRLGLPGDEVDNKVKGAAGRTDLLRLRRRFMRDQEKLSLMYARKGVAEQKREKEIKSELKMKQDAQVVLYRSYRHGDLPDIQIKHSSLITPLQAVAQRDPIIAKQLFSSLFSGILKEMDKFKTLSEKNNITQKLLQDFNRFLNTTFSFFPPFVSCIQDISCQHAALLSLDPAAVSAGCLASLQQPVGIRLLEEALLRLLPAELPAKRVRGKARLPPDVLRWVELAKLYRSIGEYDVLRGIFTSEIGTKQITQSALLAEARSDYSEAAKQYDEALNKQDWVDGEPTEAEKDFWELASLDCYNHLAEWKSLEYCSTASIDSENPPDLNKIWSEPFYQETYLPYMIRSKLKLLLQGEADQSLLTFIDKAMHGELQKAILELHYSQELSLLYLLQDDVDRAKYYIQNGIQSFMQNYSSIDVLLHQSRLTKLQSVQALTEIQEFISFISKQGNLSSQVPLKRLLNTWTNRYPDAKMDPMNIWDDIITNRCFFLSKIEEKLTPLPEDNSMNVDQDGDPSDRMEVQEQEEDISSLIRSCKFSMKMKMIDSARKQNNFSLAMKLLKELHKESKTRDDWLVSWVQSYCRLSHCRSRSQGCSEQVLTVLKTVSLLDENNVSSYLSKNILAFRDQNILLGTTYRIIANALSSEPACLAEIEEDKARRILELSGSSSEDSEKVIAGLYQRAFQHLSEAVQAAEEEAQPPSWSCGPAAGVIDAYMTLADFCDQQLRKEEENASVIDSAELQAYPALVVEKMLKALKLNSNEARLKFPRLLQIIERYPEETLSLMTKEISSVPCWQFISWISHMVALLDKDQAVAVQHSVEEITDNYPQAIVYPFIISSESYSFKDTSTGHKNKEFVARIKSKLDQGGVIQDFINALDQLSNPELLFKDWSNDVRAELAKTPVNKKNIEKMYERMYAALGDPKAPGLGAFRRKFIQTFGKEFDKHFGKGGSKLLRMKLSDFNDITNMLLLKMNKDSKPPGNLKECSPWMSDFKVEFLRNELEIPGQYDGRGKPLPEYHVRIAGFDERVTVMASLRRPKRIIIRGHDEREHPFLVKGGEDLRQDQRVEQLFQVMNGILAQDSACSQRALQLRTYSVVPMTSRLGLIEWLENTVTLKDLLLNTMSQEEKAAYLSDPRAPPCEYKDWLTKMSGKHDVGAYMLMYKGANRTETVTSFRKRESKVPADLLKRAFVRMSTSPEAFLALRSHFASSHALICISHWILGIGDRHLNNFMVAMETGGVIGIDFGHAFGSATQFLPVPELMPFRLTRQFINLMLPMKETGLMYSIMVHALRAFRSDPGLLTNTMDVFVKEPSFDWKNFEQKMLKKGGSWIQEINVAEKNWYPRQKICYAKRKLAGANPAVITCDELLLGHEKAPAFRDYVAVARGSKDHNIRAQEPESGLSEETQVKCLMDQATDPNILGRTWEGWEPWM

B1: Endostatin: recombinant natural human endostatin expressed by E. coli, from Protgen, SEQ ID NO: 2 (protein)
chain: MHSHRDFQPVLHLVALNSPLSGGMRGIRGADFQCFQQARAVGLAGTFRAFLSSRLQDLYSIVRRADRAAVPIVNLKDELLFPSWEALFSGSEGPLKPGARIFSFDGKDVLRHPTWPQKSVWHGSDPNGRRLTESYCETWRTEAPSATGQASSLLGGRLLGQSAASCHHAYIVLCIENSFMTASK
modifications: The amino acid sequence of natural human endostatin
- DNA-PKcs, PARP, γH2AX and Caspase-3 signaling pathway levels [1]: did not affect the above-mentioned signaling pathway levels
- Effect on ability of Etoposide to promote apoptosis (PI-positive cells) [2]: could enhance the ability of Etoposide to promote the apoptosis of tumor cells
- tumor suppression rate (H1299-NC tumor): 19.6%
- Endostatin-binding protein identified by pull-down, SDS-PAGE and mass spectrometric analysis (DNA-PKcs; A549 cell lysate, BSA-coupled Sepharose as control): DNA-PKcs was identified as a protein interacted with Endostatin
- DNA-PKcs precipitated by Endostatin-coupled CNBr-activated Sepharose 4B (immunoblotting) (DNA-PKcs; H1299 and A549 cell lysates): can be precipitated by CNBr-activated Sepharose 4B coupled with Endostatin
- Co-immunoprecipitation with antibody of DNA-PKcs (DNA-PKcs; H1299 and A549 cells incubated with Endostatin for 2 hours): Endostatin could be co-precipitated by DNA-PKcs
- Effect on up-regulation of pro-apoptotic molecules by Etoposide (mRNA) [3]: could enhance Etoposide to up-regulate pro-apoptotic molecules
- Level of the DNA-PKcs signaling pathway (p-DNA-PKcs (S2056), p-AKT (S473), p-P53 (S15)) [4]: did not affect the level of the DNA-PKcs signaling pathway
- Tumor cell proliferation (PCNA) and protein level of DNA-PKcs in tumor tissue [5]: can attenuate tumor cell proliferation to a certain extent and reduce the protein level of DNA-PKcs
- Reduction of γH2AX level (repair of DSBs damage) after Etoposide (γH2AX): delayed the reduction of γH2AX level
- tumor suppression rate (H1299-P53 tumor; H1299-P53, Day 19, compared with control group, Endostatin 20 mg/kg i.p. once a day, Etoposide 2 mg/kg i.p. once every two days): 33.8%
- Effect on the inhibitory effect of Etoposide on tumor growth (H1299-P53 tumor; H1299-P53, Endostatin 20 mg/kg i.p. once a day and Etoposide 2 mg/kg i.p. once every two days): could not enhance the inhibitory effect of Etoposide on tumor growth
- Effect on the pro-apoptotic effect of Etoposide (mRNA of pro-apoptotic molecules) [6]: did not significantly enhance the pro-apoptotic effect of Etoposide
- Role of Endostatin in promoting apoptosis induced by Etoposide after knocking down DNA-PKcs (H1299 and A549 cells; DNA-PKcs siRNA): weakened
- Etoposide-induced apoptosis (H1299 and A549 cells; control siRNA): would further promote Etoposide-induced apoptosis
